Article PMC3324464, “The GPI Anchor Signal Sequence Dictates the Folding and Functionality of the Als5 Adhesin from Candida albicans” (PLoS ONE, 2012)
“Also recorded” adds a separate entry of the source.

Legend:
[1] = molecular target: T1, GST-Als5 (Candida albicans, UniProt Q5A8T7 20-1327); test: other fluorescence titration; conditions: both partners purified
T1 construct: source: E. coli BL21, purified (glutathione-agarose); not shown: GST, N-terminal, kept
T1 sequence: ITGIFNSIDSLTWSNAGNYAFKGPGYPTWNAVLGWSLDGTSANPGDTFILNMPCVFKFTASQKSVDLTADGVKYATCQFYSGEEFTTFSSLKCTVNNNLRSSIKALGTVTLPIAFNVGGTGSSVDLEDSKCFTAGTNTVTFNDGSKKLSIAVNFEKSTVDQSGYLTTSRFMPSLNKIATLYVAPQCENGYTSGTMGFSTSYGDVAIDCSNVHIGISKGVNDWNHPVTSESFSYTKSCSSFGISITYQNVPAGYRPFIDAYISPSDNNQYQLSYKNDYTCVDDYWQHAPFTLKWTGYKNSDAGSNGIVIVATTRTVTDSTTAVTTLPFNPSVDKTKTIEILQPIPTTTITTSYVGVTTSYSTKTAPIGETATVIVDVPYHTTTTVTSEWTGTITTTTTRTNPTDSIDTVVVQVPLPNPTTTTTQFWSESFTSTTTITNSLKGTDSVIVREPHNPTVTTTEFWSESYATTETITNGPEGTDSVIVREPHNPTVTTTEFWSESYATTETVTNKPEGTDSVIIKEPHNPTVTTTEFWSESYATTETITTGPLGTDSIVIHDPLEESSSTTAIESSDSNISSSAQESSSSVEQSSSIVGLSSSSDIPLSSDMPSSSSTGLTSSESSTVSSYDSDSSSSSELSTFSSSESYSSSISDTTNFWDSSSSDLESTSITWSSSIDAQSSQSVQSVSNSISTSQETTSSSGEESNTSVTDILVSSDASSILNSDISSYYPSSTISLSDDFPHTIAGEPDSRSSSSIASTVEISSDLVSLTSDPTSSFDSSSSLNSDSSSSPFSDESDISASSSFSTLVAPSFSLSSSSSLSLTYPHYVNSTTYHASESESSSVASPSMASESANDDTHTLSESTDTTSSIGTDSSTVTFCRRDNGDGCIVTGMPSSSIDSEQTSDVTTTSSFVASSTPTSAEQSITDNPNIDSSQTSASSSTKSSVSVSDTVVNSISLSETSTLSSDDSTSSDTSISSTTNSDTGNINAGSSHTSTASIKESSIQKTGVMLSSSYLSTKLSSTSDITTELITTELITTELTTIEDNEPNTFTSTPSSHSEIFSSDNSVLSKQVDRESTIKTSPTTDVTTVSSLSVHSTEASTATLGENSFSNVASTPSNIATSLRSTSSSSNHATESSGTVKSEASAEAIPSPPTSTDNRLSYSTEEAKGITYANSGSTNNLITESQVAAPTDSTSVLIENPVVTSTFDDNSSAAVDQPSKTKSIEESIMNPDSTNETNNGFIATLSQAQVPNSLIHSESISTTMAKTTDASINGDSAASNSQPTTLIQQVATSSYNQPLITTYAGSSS

[2] = molecular target: T1, GST-Als5; test: other fluorescence titration; tryptophan fluorescence of 0.02 mg/ml protein, peptide titrated in; one-site saturation model; 42 °C; conditions: both partners purified
[3] = molecular target: T2, GST-Als5-SS (Candida albicans, UniProt Q5A8T7 20-1326, N-terminal GST tag (pGEX-6P-2) not cleaved, omitted here; expressed in E. coli, unglycosylated. The 4044 bp insert implies the full ORF, including the N-terminal secretion signal, although the figure); test: other fluorescence titration; van't Hoff plots of the association constants from the fluorescence titrations at different temperatures; ΔH° from the slope; conditions: both partners purified
[4] = molecular target: T1, GST-Als5; test: as above; conditions: both partners purified
[5] = molecular target: T2, GST-Als5-SS; test: other fluorescence titration; tryptophan fluorescence of 0.02 mg/ml protein, peptide titrated in; one-site saturation model; 52 °C (secondary structure of both proteins mildly perturbed at this temperature); conditions: both partners purified
[6] = molecular target: T1, GST-Als5; test: as above; conditions: both partners purified
[7] = Aggregation by transmission electron microscopy; format: physicochemical; conditions: 37 °C, 2 weeks; 0.4 µM / 0.09 mg/ml (method)
Protocol: Transmission Electron Microscopy (TEM)
TEM studies were carried out on a JEOL 2100F. The proteins (0.09 mg/ml) were incubated at 37 °C for 2 weeks prior to the measurements. The proteins were spotted on a carbon-coated copper grid and positively stained with 2% uranyl acetate. The sample was then dried and examined by TEM using a 210 kV accelerating voltage.
Figure 5 Transmission electron microscope images showing aggregation by GST-Als5. […] The scale bar in each panel represents 100 nm. Left panel: 10,000X magnification. Right panel: 25,000X magnification.
(A) Prediction of β-aggregation potential for the GPI anchor attachment signal sequence (SS). The prediction of β-aggregation potential for the SS was done using TANGO (residues 1328–1347). Also shown is the propensity for α-helix, β-turn and β-sheet formation in the unfolded polypeptide chain as predicted by TANGO. […] (B). Transmission electron microscope images showing aggregation by SS and SS in the presence of GST-Als5. The samples, SS (40.0 µM), GST-Als5 (0.4 µM) and GST-Als5 (0.4 µM) + SS (40.0 µM) were incubated as 37 °C for two days before TEM images were recorded.

In the case of AYKSLMT (source: synthetic peptide (USV Ltd.)), the Kd [1] is reported as 13 nM, the Kd [2] is reported as 9 nM and the dH [3] is reported as 18.6 kcal/mol. It also gave a dH [4] of -0.803 kcal/mol, a Kd [5] of 2 nM and a Kd [6] of 12 nM.

B1: GST-Als5-SS: GST fusion of Als5 with the GPI-anchor attachment signal sequence, expressed in E. coli (protein)
chain: ITGIFNSIDSLTWSNAGNYAFKGPGYPTWNAVLGWSLDGTSANPGDTFILNMPCVFKFTASQKSVDLTADGVKYATCQFYSGEEFTTFSSLKCTVNNNLRSSIKALGTVTLPIAFNVGGTGSSVDLEDSKCFTAGTNTVTFNDGSKKLSIAVNFEKSTVDQSGYLTTSRFMPSLNKIATLYVAPQCENGYTSGTMGFSTSYGDVAIDCSNVHIGISKGVNDWNHPVTSESFSYTKSCSSFGISITYQNVPAGYRPFIDAYISPSDNNQYQLSYKNDYTCVDDYWQHAPFTLKWTGYKNSDAGSNGIVIVATTRTVTDSTTAVTTLPFNPSVDKTKTIEILQPIPTTTITTSYVGVTTSYSTKTAPIGETATVIVDVPYHTTTTVTSEWTGTITTTTTRTNPTDSIDTVVVQVPLPNPTTTTTQFWSESFTSTTTITNSLKGTDSVIVREPHNPTVTTTEFWSESYATTETITNGPEGTDSVIVREPHNPTVTTTEFWSESYATTETVTNKPEGTDSVIIKEPHNPTVTTTEFWSESYATTETITTGPLGTDSIVIHDPLEESSSTTAIESSDSNISSSAQESSSSVEQSSSIVGLSSSSDIPLSSDMPSSSSTGLTSSESSTVSSYDSDSSSSSELSTFSSSESYSSSISDTTNFWDSSSSDLESTSITWSSSIDAQSSQSVQSVSNSISTSQETTSSSGEESNTSVTDILVSSDASSILNSDISSYYPSSTISLSDDFPHTIAGEPDSRSSSSIASTVEISSDLVSLTSDPTSSFDSSSSLNSDSSSSPFSDESDISASSSFSTLVAPSFSLSSSSSLSLTYPHYVNSTTYHASESESSSVASPSMASESANDDTHTLSESTDTTSSIGTDSSTVTFCRRDNGDGCIVTGMPSSSIDSEQTSDVTTTSSFVASSTPTSAEQSITDNPNIDSSQTSASSSTKSSVSVSDTVVNSISLSETSTLSSDDSTSSDTSISSTTNSDTGNINAGSSHTSTASIKESSIQKTGVMLSSSYLSTKLSSTSDITTELITTELITTELTTIEDNEPNTFTSTPSSHSEIFSSDNSVLSKQVDRESTIKTSPTTDVTTVSSLSVHSTEASTATLGENSFSNVASTPSNIATSLRSTSSSSNHATESSGTVKSEASAEAIPSPPTSTDNRLSYSTEEAKGITYANSGSTNNLITESQVAAPTDSTSVLIENPVVTSTFDDNSSAAVDQPSKTKSIEESIMNPDSTNETNNGFIATLSQAQVPNSLIHSESISTTMAKTTDASINGDSAASNSQPTTLIQQVATSSYNQPLITTYAGSS
modifications: left off: GST, N-terminal, kept
With B1 the “aggregation (in words)” value [7] was “showed very poor aggregation; also recorded: showed no propensity for aggregation”.
